Biological target: the molecule itself
Experiment: dynamic light scattering

Protein | binding result
recombinant Arc S67D, GST tag cleaved (natural protein) MELDHMTTGGLHAYPAPRGGPAAKPNVILQIGKCRAEMLEHVRRTHRHLLTEVSKQVERELKGLHRDVGKLENNLDGYVPTGDSQRWKKSIKACLCRCQETIANLERWVKREMHVWREVFYRLERWADRLESMGGKYPVGSEPARHTVSVGVGGPEPYCQEADGYDYTVSPYAITPPPAAGELPEQESVEAQQYQSWGPGEDGQPSPGVDTQIFEDPREFLSHLEEYLRQVGGSEEYWLSQIQNHMNGPAKKWWEFKQGSVKNWVEFKKEFLQYSEGTLSREAIQRELELPQKQGEPLDQFLWRKRDLYQTLYVDAEEEEIIQYVVGTLQPKLKRFLRHPLPKTLEQLIQRGMEVQDGLEQAAEPSGTPLPTEDETEALTPALTSESVASDRTQPE | binds
recombinant Arc T278D, GST tag cleaved (natural protein) MELDHMTTGGLHAYPAPRGGPAAKPNVILQIGKCRAEMLEHVRRTHRHLLTEVSKQVERELKGLHRSVGKLENNLDGYVPTGDSQRWKKSIKACLCRCQETIANLERWVKREMHVWREVFYRLERWADRLESMGGKYPVGSEPARHTVSVGVGGPEPYCQEADGYDYTVSPYAITPPPAAGELPEQESVEAQQYQSWGPGEDGQPSPGVDTQIFEDPREFLSHLEEYLRQVGGSEEYWLSQIQNHMNGPAKKWWEFKQGSVKNWVEFKKEFLQYSEGDLSREAIQRELELPQKQGEPLDQFLWRKRDLYQTLYVDAEEEEIIQYVVGTLQPKLKRFLRHPLPKTLEQLIQRGMEVQDGLEQAAEPSGTPLPTEDETEALTPALTSESVASDRTQPE | binds

Source: article doi:10.1101/2021.04.04.438383 (bioRxiv, 2021)
